Assay results as given in US20180155451A1 (published 2018).

B1: GpH7-A5/GpH7-B3 variant S324_19Q/GpL16-k0 (He Ab) (antibody, human IgG1, kappa)
heavy 1: not shown
heavy 2: not shown
light: DIVMTQSPLSLPVTPGEPASISCQASESLVHSNRNTYLHWYLQKPGQSPQLLIYKVSNRFSGVPDRFSGSGSGTDFTLKISRVEAEDVGVYYCSQNTHVPPTFGQGTKVEIERTVAAPSVFIFPPSDEQLKSGTASVVCLLNNFYPREAKVQWKVDNALQSGNSQESVTEQDSKDSTYSLSSTLTLSKADYEKHKVYACEVTHQGLSSPVTKSFNRGEC
notes: He Ab: alteration only in the GpH7-B3 chain
B2: GpH7-A5/GpH7-B3 variant Q295_04F/GpL16-k0 (He Ab) (antibody, human IgG1, kappa)
heavy 1: not shown
heavy 2: not shown
light: B1 light
notes: as for B1
B3: GpH7-A5/GpH7-B3 variant S324_03V/GpL16-k0 (He Ab) (antibody, human IgG1, kappa)
heavy 1: not shown
heavy 2: not shown
light: B1 light
notes: as for B1
B4: GpH7-A5/GpH7-B3 variant S298_15Y/GpL16-k0 (He Ab) (antibody, human IgG1, kappa)
heavy 1: not shown
heavy 2: not shown
light: B1 light
notes: as for B1
B5: GpH7-A5/GpH7-B3 variant S267_03V/GpL16-k0 (He Ab) (antibody, human IgG1, kappa)
heavy 1: not shown
heavy 2: not shown
light: B1 light
notes: as for B1
B6: GpH7-A5/GpH7-B3 variant Q295_02A/GpL16-k0 (He Ab) (antibody, human IgG1, kappa)
heavy 1: not shown
heavy 2: not shown
light: B1 light
notes: as for B1
B7: GpH7-A5/GpH7-B3 variant S267_09D/GpL16-k0 (He Ab) (antibody, human IgG1, kappa)
heavy 1: not shown
heavy 2: not shown
light: B1 light
notes: as for B1
B8: GpH7-A5/GpH7-B3 variant P271_20W/GpL16-k0 (He Ab) (antibody, human IgG1, kappa)
heavy 1: not shown
heavy 2: not shown
light: B1 light
notes: as for B1
B9: GpH7-A5/GpH7-B3 variant Q295_03V/GpL16-k0 (He Ab) (antibody, human IgG1, kappa)
heavy 1: not shown
heavy 2: not shown
light: B1 light
notes: as for B1
B10: GpH7-A5/GpH7-B3 variant S324_02A/GpL16-k0 (He Ab) (antibody, human IgG1, kappa)
heavy 1: not shown
heavy 2: not shown
light: B1 light
notes: as for B1
B11: GpH7-A5/GpH7-B3 variant P271_12R/GpL16-k0 (He Ab) (antibody, human IgG1, kappa)
heavy 1: not shown
heavy 2: not shown
light: B1 light
notes: as for B1
B12: GpH7-A5/GpH7-B3 variant S324_20W/GpL16-k0 (He Ab) (antibody, human IgG1, kappa)
heavy 1: not shown
heavy 2: not shown
light: B1 light
notes: as for B1
B13: GpH7-A5/GpH7-B3 variant S267_01G/GpL16-k0 (He Ab) (antibody, human IgG1, kappa)
heavy 1: not shown
heavy 2: not shown
light: B1 light
notes: as for B1
B14: GpH7-A5/GpH7-B3 variant S298_14T/GpL16-k0 (He Ab) (antibody, human IgG1, kappa)
heavy 1: not shown
heavy 2: not shown
light: B1 light
notes: as for B1
B15: GpH7-A5/GpH7-B3 variant Q295_07I/GpL16-k0 (He Ab) (antibody, human IgG1, kappa)
heavy 1: not shown
heavy 2: not shown
light: B1 light
notes: as for B1
B16: GpH7-A5/GpH7-B3 variant S267_02A/GpL16-k0 (He Ab) (antibody, human IgG1, kappa)
heavy 1: not shown
heavy 2: not shown
light: B1 light
notes: as for B1
B17: GpH7-A5/GpH7-B3 variant S239_01G/GpL16-k0 (He Ab) (antibody, human IgG1, kappa)
heavy 1: not shown
heavy 2: not shown
light: B1 light
notes: as for B1
B18: GpH7-A5/GpH7-B3 variant S298_19Q/GpL16-k0 (He Ab) (antibody, human IgG1, kappa)
heavy 1: not shown
heavy 2: not shown
light: B1 light
notes: as for B1
B19: GpH7-A5/GpH7-B3 variant S298_07I/GpL16-k0 (He Ab) (antibody, human IgG1, kappa)
heavy 1: not shown
heavy 2: not shown
light: B1 light
notes: as for B1
B20: GpH7-A5/GpH7-B3 variant S337_02A/GpL16-k0 (He Ab) (antibody, human IgG1, kappa)
heavy 1: not shown
heavy 2: not shown
light: B1 light
notes: as for B1
B21: GpH7-A5/GpH7-B3 variant S298_16H/GpL16-k0 (He Ab) (antibody, human IgG1, kappa)
heavy 1: not shown
heavy 2: not shown
light: B1 light
notes: as for B1
B22: GpH7-A5/GpH7-B3 variant S337_01G/GpL16-k0 (He Ab) (antibody, human IgG1, kappa)
heavy 1: not shown
heavy 2: not shown
light: B1 light
notes: as for B1
B23: GpH7-A5/GpH7-B3 variant S337_03V/GpL16-k0 (He Ab) (antibody, human IgG1, kappa)
heavy 1: not shown
heavy 2: not shown
light: B1 light
notes: as for B1
B24: GpH7-A5/GpH7-B3 variant S324_14T/GpL16-k0 (He Ab) (antibody, human IgG1, kappa)
heavy 1: not shown
heavy 2: not shown
light: B1 light
notes: as for B1
B25: GpH7-A5/GpH7-B3 variant S239_09D/GpL16-k0 (He Ab) (antibody, human IgG1, kappa)
heavy 1: not shown
heavy 2: not shown
light: B1 light
notes: as for B1
B26: GpH7-A5/GpH7-B3 variant Q295_13S/GpL16-k0 (He Ab) (antibody, human IgG1, kappa)
heavy 1: not shown
heavy 2: not shown
light: B1 light
notes: as for B1
B27: GpH7-A5/GpH7-B3 variant Q295_14T/GpL16-k0 (He Ab) (antibody, human IgG1, kappa)
heavy 1: not shown
heavy 2: not shown
light: B1 light
notes: as for B1
B28: GpH7-A5/GpH7-B3 variant Q295_18N/GpL16-k0 (He Ab) (antibody, human IgG1, kappa)
heavy 1: not shown
heavy 2: not shown
light: B1 light
notes: as for B1
B29: GpH7-A5/GpH7-B3 variant S298_18N/GpL16-k0 (He Ab) (antibody, human IgG1, kappa)
heavy 1: not shown
heavy 2: not shown
light: B1 light
notes: as for B1
B30: GpH7-A5/GpH7-B3 variant S298_10E/GpL16-k0 (He Ab) (antibody, human IgG1, kappa)
heavy 1: not shown
heavy 2: not shown
light: B1 light
notes: as for B1
B31: GpH7-A5/GpH7-B3 variant Q295_05P/GpL16-k0 (He Ab) (antibody, human IgG1, kappa)
heavy 1: not shown
heavy 2: not shown
light: B1 light
notes: as for B1
B32: GpH7-A5/GpH7-B3 variant S324_08L/GpL16-k0 (He Ab) (antibody, human IgG1, kappa)
heavy 1: not shown
heavy 2: not shown
light: B1 light
notes: as for B1
B33: GpH7-A5/GpH7-B3 variant S298_08L/GpL16-k0 (He Ab) (antibody, human IgG1, kappa)
heavy 1: not shown
heavy 2: not shown
light: B1 light
notes: as for B1
B34: GpH7-A5/GpH7-B3 variant S298_03V/GpL16-k0 (He Ab) (antibody, human IgG1, kappa)
heavy 1: not shown
heavy 2: not shown
light: B1 light
notes: as for B1
B35: GpH7-A5/GpH7-B3 variant P271_13S/GpL16-k0 (He Ab) (antibody, human IgG1, kappa)
heavy 1: not shown
heavy 2: not shown
light: B1 light
notes: as for B1
B36: GpH7-B3 variant S298_11K/GpL16-k0 (antibody, human IgG1, kappa)
heavy: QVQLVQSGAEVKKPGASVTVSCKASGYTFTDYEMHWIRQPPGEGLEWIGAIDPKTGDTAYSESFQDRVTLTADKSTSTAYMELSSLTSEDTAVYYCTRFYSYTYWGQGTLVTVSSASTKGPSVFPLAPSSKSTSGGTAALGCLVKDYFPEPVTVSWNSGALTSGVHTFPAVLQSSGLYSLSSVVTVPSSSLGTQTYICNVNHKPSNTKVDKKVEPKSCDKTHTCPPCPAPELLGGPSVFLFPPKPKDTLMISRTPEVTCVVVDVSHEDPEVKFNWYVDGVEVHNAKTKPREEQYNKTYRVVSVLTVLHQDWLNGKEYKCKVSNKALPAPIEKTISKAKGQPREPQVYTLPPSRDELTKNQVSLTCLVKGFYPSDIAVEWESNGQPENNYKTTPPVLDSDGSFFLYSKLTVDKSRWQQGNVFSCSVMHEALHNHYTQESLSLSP
light: B1 light
notes: mutation in both H chains; also called Ho Ab S298_11K; S298K
B37: GpH7-B3 variant S267_03V/GpL16-k0 (antibody, human IgG1, kappa)
heavy: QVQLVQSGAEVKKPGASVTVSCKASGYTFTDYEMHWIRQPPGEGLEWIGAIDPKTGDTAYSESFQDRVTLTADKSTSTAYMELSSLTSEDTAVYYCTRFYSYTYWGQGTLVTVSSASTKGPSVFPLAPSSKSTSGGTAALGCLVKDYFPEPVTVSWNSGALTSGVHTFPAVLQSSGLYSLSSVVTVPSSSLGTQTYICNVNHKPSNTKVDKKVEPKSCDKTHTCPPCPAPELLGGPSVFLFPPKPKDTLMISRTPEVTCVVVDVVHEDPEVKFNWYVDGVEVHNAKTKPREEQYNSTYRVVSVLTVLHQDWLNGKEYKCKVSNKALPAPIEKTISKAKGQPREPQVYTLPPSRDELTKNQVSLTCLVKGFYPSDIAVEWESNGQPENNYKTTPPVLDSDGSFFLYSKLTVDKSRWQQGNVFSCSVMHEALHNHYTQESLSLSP
light: B1 light
notes: mutation in both H chains; also called Ho Ab S267_03V; S267V
B38: GpH7-B3 variant S239_19Q/GpL16-k0 (antibody, human IgG1, kappa)
heavy: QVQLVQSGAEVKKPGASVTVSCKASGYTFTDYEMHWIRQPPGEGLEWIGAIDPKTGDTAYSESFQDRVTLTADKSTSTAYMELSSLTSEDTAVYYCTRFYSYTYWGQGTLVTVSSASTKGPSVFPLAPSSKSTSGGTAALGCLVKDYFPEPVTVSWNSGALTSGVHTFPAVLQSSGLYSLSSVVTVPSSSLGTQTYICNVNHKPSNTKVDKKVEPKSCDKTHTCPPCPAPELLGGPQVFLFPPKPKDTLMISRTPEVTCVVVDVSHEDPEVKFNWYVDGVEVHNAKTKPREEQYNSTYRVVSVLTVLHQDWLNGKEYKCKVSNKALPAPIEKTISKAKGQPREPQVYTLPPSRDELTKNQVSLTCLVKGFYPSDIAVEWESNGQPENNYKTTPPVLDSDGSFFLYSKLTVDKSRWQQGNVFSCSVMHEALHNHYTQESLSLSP
light: B1 light
notes: mutation in both H chains; also called Ho Ab S239_19Q; S239Q
B39: GpH7-B3 variant S239_18N/GpL16-k0 (antibody, human IgG1, kappa)
heavy: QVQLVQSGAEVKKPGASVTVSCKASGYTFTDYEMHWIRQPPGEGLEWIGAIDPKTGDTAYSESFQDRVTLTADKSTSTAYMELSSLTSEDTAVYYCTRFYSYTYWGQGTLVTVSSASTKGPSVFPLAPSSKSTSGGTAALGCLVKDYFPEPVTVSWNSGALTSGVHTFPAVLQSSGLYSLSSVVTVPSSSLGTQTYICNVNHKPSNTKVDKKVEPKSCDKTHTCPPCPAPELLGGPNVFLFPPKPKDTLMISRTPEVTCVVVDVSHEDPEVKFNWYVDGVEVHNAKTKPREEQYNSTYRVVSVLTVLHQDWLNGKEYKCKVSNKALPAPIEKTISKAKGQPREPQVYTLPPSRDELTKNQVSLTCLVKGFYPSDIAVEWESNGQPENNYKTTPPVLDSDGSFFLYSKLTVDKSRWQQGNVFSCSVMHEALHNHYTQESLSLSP
light: B1 light
notes: mutation in both H chains; also called Ho Ab S239_18N; S239N
B40: GpH7-B3 variant S267_02A/GpL16-k0 (antibody, human IgG1, kappa)
heavy: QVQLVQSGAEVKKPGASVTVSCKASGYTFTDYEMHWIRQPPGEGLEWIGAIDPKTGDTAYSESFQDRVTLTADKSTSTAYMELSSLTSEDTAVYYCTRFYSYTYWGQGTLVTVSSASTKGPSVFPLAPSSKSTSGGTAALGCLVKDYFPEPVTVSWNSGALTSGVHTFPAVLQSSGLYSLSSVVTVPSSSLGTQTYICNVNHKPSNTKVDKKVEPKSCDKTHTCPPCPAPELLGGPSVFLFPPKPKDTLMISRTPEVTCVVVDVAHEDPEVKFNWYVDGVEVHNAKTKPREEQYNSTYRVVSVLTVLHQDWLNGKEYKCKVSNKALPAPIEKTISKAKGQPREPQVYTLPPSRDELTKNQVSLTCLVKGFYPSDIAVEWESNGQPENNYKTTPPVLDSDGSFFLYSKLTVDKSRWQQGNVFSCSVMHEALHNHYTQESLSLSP
light: B1 light
notes: mutation in both H chains; also called Ho Ab S267_02A; S267A
B41: GpH7-B3 variant S267_08L/GpL16-k0 (antibody, human IgG1, kappa)
heavy: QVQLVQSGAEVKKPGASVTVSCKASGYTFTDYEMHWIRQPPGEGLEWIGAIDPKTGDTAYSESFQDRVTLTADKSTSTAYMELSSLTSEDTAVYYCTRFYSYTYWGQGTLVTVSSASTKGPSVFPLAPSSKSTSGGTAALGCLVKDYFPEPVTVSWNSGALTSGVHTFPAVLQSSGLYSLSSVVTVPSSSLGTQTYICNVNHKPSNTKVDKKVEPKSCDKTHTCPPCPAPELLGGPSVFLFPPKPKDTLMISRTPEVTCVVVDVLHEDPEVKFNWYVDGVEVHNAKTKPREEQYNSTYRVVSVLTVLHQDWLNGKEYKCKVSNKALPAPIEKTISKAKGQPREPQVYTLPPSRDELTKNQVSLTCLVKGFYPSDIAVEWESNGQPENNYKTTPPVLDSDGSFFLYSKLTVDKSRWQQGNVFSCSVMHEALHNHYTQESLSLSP
light: B1 light
notes: mutation in both H chains; also called Ho Ab S267_08L; S267L
B42: GpH7-B3 variant S267_01G/GpL16-k0 (antibody, human IgG1, kappa)
heavy: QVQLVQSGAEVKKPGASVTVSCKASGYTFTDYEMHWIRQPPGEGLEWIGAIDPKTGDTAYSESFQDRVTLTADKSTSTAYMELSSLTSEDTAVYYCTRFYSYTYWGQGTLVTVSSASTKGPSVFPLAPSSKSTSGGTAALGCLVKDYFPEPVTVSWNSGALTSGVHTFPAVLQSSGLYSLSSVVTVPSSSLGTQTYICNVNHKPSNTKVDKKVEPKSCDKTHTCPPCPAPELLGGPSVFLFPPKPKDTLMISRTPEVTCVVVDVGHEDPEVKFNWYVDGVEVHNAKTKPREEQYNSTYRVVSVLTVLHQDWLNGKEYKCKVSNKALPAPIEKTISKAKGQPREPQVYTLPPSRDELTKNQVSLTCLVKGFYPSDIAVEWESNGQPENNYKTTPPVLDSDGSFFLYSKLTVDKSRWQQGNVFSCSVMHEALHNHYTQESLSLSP
light: B1 light
notes: mutation in both H chains; also called Ho Ab S267_01G; S267G
B43: GpH7-B3 variant S239_14T/GpL16-k0 (antibody, human IgG1, kappa)
heavy: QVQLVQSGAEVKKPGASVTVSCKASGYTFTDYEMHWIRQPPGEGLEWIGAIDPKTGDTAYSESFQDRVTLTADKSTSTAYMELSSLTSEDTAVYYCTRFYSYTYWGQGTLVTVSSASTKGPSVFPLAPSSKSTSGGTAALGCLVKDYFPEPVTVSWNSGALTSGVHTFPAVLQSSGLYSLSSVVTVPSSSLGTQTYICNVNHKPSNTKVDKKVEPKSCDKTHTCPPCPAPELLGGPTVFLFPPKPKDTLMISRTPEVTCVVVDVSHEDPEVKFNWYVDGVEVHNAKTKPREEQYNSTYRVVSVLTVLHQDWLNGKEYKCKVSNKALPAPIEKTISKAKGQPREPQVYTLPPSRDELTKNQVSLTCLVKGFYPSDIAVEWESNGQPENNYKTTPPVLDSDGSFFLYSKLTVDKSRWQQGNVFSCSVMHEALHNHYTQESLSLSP
light: B1 light
notes: mutation in both H chains; also called Ho Ab S239_14T; S239T
B44: GpH7-B3 variant S239_09D/GpL16-k0 (antibody, human IgG1, kappa)
heavy: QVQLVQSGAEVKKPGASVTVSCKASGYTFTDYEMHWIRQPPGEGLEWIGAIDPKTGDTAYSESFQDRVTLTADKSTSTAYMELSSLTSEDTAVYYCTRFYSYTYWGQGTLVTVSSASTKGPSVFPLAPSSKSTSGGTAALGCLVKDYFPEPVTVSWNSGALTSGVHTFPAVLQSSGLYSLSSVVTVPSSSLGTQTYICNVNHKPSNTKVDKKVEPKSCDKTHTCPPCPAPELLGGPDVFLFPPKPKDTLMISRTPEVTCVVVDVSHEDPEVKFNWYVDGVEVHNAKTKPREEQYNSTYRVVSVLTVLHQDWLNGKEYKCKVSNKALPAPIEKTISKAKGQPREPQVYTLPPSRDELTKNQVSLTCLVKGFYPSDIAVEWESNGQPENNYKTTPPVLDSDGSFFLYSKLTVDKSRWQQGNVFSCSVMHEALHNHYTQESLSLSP
light: B1 light
notes: mutation in both H chains; also called Ho Ab S239_09D; S239D

target: T1, FcγRIa extracellular domain with C-terminal His tag (human, UniProt P12314 16-292); assay: SPR Biacore, antibody captured, FcγRIa analyte; vs GpH7-A5/GpH7-B3/GpL16-k0 = 100
T1 construct: extracellular domain; Expressed in FreeStyle293 cells; analyte in Biacore; also called FcgRI; FcgRIa
T1 sequence (P12314 16-292): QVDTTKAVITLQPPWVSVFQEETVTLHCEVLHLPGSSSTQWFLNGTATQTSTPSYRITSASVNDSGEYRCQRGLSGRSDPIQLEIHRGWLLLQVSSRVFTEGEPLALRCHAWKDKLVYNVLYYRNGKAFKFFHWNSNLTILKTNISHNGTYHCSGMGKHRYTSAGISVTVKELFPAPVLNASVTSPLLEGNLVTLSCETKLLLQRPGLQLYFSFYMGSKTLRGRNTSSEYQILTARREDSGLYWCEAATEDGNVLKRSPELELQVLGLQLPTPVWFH

| He/Con_1a | Binder |
| --- | --- |
| 112 relative (control = 100) | B1 |
| 102 relative (control = 100) | B2 |
| 104 relative (control = 100) | B3 |
| 107 relative (control = 100) | B4 |
| 106 relative (control = 100) | B5 |
| 104 relative (control = 100) | B6 |
| 110 relative (control = 100) | B7 |
| 103 relative (control = 100) | B8 |
| 104 relative (control = 100) | B9 |
| 103 relative (control = 100) | B10 |
| 102 relative (control = 100) | B11 |
| 114 relative (control = 100) | B12 |
| 103 relative (control = 100) | B13 |
| 107 relative (control = 100) | B14 |
| 103 relative (control = 100) | B15 |
| 109 relative (control = 100) | B16 |
| 101 relative (control = 100) | B17 |
| 109 relative (control = 100) | B18 |

| He/Con_1a | Binder |
| --- | --- |
| 107 relative (control = 100) | B19 |
| 106 relative (control = 100) | B20 |
| 109 relative (control = 100) | B21 |
| 107 relative (control = 100) | B22 |
| 107 relative (control = 100) | B23 |
| 121 relative (control = 100) | B24 |
| 101 relative (control = 100) | B25 |
| 102 relative (control = 100) | B26 |
| 103 relative (control = 100) | B27 |
| 102 relative (control = 100) | B28 |
| 108 relative (control = 100) | B29 |
| 108 relative (control = 100) | B30 |
| 103 relative (control = 100) | B31 |
| 103 relative (control = 100) | B32 |
| 107 relative (control = 100) | B33 |
| 110 relative (control = 100) | B34 |
| 102 relative (control = 100) | B35 |

target: T2, FcγRIa extracellular domain with C-terminal His tag (human, UniProt P12314 16-292); assay: SPR Biacore, relative FcγRIa binding vs GpH7-B3/GpL16-k0
T2 construct: extracellular domain; also called FcgRI; CD64; not shown: His tag at the C terminus
T2 sequence (P12314 16-292): as above

| Ho/Con_1a | Binder |
| --- | --- |
| 90.4 % of HoCon Ab (=100) | B36 |
| 102 % of HoCon Ab (=100) | B37 |
| 93.4 % of HoCon Ab (=100) | B38 |
| 97.9 % of HoCon Ab (=100) | B39 |
| 108 % of HoCon Ab (=100) | B40 |
| 99.9 % of HoCon Ab (=100) | B41 |
| 102 % of HoCon Ab (=100) | B42 |
| 101 % of HoCon Ab (=100) | B43 |
| 101 % of HoCon Ab (=100) | B44 |
